Laboratory results reported in publication PMC9482650, “Quantitative fragmentomics allow affinity mapping of interactomes” (Nature Communications, 2022).

How the values were obtained:
Assay in all cases: holdup assay
Design in all cases: key: below the threshold = too weak to quantify, mostly under pKd 3.1 to 4
ARHGAP21, Q5T5U3 = biological target: T1, ARHGAP21, Q5T5U3
T1 sequence (Q5T5U3 45-169, limits assumed, looked up): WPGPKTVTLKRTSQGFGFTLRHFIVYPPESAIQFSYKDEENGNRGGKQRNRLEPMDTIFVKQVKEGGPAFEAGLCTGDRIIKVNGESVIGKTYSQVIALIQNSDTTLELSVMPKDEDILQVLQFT

ARHGEF11, O15085 = biological target: T2, ARHGEF11, O15085
T2 sequence (O15085 42-136, limits assumed, looked up): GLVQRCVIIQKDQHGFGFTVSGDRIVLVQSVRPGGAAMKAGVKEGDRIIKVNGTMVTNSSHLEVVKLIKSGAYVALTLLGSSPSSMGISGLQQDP

DLG3_2, Q92796 = biological target: T3, DLG3_2, Q92796
T3 sequence (Q92796 221-321, limits assumed, looked up): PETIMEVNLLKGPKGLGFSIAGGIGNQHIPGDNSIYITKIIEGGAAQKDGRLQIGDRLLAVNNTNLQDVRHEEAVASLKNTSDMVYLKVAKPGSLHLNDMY

DLG5_1, Q8TDM6 = biological target: DLG5_1, Q8TDM6
DLG5_1, Q8TDM6, sequence (Q8TDM6 617-713): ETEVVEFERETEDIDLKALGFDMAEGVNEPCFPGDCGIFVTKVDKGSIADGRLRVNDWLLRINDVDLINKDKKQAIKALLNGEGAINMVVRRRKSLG

GORASP1, Q9BQQ3 = biological target: GORASP1, Q9BQQ3
GORASP1, Q9BQQ3, sequence (Q9BQQ3 1-208): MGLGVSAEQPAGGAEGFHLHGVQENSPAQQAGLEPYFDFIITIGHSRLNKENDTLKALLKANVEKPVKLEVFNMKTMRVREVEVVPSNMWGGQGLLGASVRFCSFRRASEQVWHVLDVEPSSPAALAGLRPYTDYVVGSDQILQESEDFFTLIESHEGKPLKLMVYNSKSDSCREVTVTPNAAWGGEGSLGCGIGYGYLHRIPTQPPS

GRIP2_5, Q9C0E4 = biological target: GRIP2_5, Q9C0E4
GRIP2_5, Q9C0E4, sequence (Q9C0E4 544-642): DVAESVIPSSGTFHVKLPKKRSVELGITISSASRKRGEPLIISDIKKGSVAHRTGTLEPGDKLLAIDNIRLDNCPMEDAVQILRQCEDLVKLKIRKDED

IL16_1, Q14005 = biological target: IL16_1, Q14005
IL16_1, Q14005, sequence (Q14005 210-306): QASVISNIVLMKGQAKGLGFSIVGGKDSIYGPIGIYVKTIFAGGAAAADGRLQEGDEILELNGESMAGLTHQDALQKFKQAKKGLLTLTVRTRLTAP

IL16_4, Q14005 = biological target: IL16_4, Q14005
IL16_4, Q14005, sequence (Q14005 1229-1329): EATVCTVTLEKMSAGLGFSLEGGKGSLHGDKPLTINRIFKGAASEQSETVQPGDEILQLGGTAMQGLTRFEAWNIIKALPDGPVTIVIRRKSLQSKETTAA

Inadl_2, Q8NI35 = biological target: Inadl_2, Q8NI35
Inadl_2, Q8NI35, sequence (Q8NI35 238-335): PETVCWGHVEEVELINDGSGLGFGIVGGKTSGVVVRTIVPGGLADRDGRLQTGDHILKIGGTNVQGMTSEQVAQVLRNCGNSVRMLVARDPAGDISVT

Inadl_8, Q8NI35 = biological target: Inadl_8, Q8NI35
Inadl_8, Q8NI35, sequence (Q8NI35 1425-1530): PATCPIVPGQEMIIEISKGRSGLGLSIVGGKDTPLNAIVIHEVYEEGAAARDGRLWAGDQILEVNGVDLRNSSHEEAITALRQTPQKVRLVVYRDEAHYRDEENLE

LDB3, O75112 = biological target: LDB3, O75112
LDB3, O75112, sequence (O75112 1-94): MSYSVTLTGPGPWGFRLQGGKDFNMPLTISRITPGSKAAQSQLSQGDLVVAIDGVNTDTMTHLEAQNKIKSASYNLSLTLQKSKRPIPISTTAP

LNX2_2, Q8N448 = biological target: T4, LNX2_2, Q8N448
T4 sequence (Q8N448 334-432, limits assumed, looked up): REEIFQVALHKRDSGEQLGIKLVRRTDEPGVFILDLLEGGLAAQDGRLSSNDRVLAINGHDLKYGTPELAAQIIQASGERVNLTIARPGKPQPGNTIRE

MAST1, Q9Y2H9 = biological target: MAST1, Q9Y2H9
MAST1, Q9Y2H9, sequence (Q9Y2H9 962-1065): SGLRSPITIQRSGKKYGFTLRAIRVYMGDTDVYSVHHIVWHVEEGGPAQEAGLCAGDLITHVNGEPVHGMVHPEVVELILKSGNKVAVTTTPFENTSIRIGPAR

MAST2, Q6P0Q8 = biological target: MAST2, Q6P0Q8
MAST2, Q6P0Q8, sequence (Q6P0Q8 1099-1202): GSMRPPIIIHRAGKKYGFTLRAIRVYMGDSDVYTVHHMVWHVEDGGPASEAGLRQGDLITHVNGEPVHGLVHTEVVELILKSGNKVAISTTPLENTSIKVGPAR

MPP6, Q9NZW5 = biological target: T5, MPP6, Q9NZW5
T5 sequence (Q9NZW5 125-219, limits assumed, looked up): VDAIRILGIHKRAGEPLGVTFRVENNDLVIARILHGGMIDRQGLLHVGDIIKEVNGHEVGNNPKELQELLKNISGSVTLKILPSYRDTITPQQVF

NHERF2_2, Q15599 = biological target: NHERF2_2, Q15599
NHERF2_2, Q15599, sequence (Q15599 142-238): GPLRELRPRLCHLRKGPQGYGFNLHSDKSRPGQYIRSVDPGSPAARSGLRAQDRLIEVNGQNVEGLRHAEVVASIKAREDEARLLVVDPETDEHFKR

NHERF3_3, Q5T2W1 = biological target: T6, NHERF3_3, Q5T2W1
T6 sequence (Q5T2W1 238-333, limits assumed, looked up): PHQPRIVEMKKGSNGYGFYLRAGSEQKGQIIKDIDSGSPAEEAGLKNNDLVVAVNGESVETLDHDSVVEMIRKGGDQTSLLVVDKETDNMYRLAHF

NHERF4_4, Q86UT5 = biological target: NHERF4_4, Q86UT5
NHERF4_4, Q86UT5, sequence (Q86UT5 464-550): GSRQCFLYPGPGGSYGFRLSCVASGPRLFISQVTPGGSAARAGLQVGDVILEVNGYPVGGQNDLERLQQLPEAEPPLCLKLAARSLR

PCLO, Q9Y6V0 = biological target: T7, PCLO, Q9Y6V0
T7 sequence (Q9Y6V0 4491-4600, limits assumed, looked up): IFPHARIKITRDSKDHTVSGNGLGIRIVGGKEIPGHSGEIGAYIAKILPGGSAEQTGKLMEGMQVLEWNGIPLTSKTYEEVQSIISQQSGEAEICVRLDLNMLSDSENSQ

PDZRN3_1, Q9UPQ7 = biological target: T8, PDZRN3_1, Q9UPQ7
T8 sequence (Q9UPQ7 244-349, limits assumed, looked up): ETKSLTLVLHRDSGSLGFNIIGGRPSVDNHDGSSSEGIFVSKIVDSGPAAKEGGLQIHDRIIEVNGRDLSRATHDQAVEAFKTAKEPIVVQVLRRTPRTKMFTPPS

PICK1, Q9NRD5 = biological target: PICK1, Q9NRD5
PICK1, Q9NRD5, sequence (Q9NRD5 17-115): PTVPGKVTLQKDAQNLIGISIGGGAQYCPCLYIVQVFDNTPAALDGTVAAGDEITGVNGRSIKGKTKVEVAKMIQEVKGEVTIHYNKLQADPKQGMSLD

PTPN3, P26045 = biological target: PTPN3, P26045
PTPN3, P26045, sequence (P26045 505-587): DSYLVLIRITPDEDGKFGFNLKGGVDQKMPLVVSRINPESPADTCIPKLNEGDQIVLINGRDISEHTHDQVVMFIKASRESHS

RHPN1, Q8TCX5 = biological target: T9, RHPN1, Q8TCX5
T9 sequence (Q8TCX5 508-602, limits assumed, looked up): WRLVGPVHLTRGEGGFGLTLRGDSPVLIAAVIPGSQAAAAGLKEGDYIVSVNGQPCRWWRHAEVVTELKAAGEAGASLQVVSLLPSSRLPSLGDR

SHANK1, Q9Y566 = biological target: T10, SHANK1, Q9Y566
T10 sequence (Q9Y566 658-767, limits assumed, looked up): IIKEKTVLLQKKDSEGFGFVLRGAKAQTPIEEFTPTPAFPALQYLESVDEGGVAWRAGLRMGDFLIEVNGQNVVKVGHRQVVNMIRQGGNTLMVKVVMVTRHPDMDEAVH

SIPA1L2, Q9P2F8 = biological target: T11, SIPA1L2, Q9P2F8
T11 sequence (Q9P2F8 945-1036, limits assumed, looked up): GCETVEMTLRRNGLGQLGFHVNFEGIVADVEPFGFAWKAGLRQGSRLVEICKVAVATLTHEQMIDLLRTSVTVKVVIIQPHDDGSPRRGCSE

SNX27, Q96L92 = biological target: SNX27, Q96L92
TJP1_2, Q07157 = biological target: TJP1_2, Q07157
TJP1_2, Q07157, sequence (Q07157 181-274): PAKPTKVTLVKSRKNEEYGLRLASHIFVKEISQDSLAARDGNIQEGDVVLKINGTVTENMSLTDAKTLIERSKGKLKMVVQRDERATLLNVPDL

[1] = plain residues with an end cap or a label only (N-terminal biotin on a linker: ttds)
[2] = plain residues with an end cap or a label only (N-terminal biotin on a linker: gsgsgs; C-terminal amide)

FHPLGADSQV [SLC2A1, P11166]
pKd (ARHGAP21, Q5T5U3; [1]): below the threshold | pKd (ARHGEF11, O15085; [1]): below the threshold | pKd (DLG3_2, Q92796; [1]): 4.03 | pKd (DLG5_1, Q8TDM6; [1]): below the threshold | pKd (GORASP1, Q9BQQ3; [1]): below the threshold | pKd (GRIP2_5, Q9C0E4; [1]): below the threshold | pKd (IL16_1, Q14005; [1]): 3.51 | pKd (IL16_4, Q14005; [1]): below the threshold | pKd (Inadl_2, Q8NI35; [1]): below the threshold | pKd (Inadl_8, Q8NI35; [1]): below the threshold | pKd (LDB3, O75112; [1]): below the threshold | pKd (LNX2_2, Q8N448; [1]): below the threshold | pKd (MAST1, Q9Y2H9; [1]): below the threshold | pKd (MAST2, Q6P0Q8; [1]): 4.25 | pKd (MPP6, Q9NZW5; [1]): below the threshold | pKd (NHERF2_2, Q15599; [1]): below the threshold | pKd (NHERF3_3, Q5T2W1; [1]): below the threshold | pKd (NHERF4_4, Q86UT5; [1]): below the threshold | pKd (PCLO, Q9Y6V0; [1]): below the threshold | pKd (PDZRN3_1, Q9UPQ7; [1]): 3.53 | pKd (PICK1, Q9NRD5; [1]): below the threshold | pKd (PTPN3, P26045; [1]): 4.1 | pKd (RHPN1, Q8TCX5; [1]): 4.29 | pKd (SHANK1, Q9Y566; [1]): below the threshold | pKd (SIPA1L2, Q9P2F8; [1]): below the threshold | pKd (SNX27, Q96L92; [1]): 4.05 | pKd (TJP1_2, Q07157; [1]): below the threshold

YGIVQETTFDLGGDIH [MLLT4_int, P55196]
pKd (ARHGAP21, Q5T5U3; [2]): below the threshold | pKd (ARHGEF11, O15085; [2]): below the threshold | pKd (DLG3_2, Q92796; [2]): 4.21 | pKd (DLG5_1, Q8TDM6; [2]): below the threshold | pKd (GORASP1, Q9BQQ3; [2]): below the threshold | pKd (GRIP2_5, Q9C0E4; [2]): below the threshold | pKd (IL16_1, Q14005; [2]): below the threshold | pKd (IL16_4, Q14005; [2]): below the threshold | pKd (Inadl_2, Q8NI35; [2]): below the threshold | pKd (Inadl_8, Q8NI35; [2]): below the threshold | pKd (LDB3, O75112; [2]): below the threshold | pKd (LNX2_2, Q8N448; [2]): below the threshold | pKd (MAST1, Q9Y2H9; [2]): below the threshold | pKd (MAST2, Q6P0Q8; [2]): 4.01 | pKd (MPP6, Q9NZW5; [2]): below the threshold | pKd (NHERF2_2, Q15599; [2]): below the threshold | pKd (NHERF3_3, Q5T2W1; [2]): below the threshold | pKd (NHERF4_4, Q86UT5; [2]): 3.84 | pKd (PCLO, Q9Y6V0; [2]): below the threshold | pKd (PDZRN3_1, Q9UPQ7; [2]): below the threshold | pKd (PICK1, Q9NRD5; [2]): below the threshold | pKd (PTPN3, P26045; [2]): 3.88 | pKd (RHPN1, Q8TCX5; [2]): below the threshold | pKd (SHANK1, Q9Y566; [2]): below the threshold | pKd (SIPA1L2, Q9P2F8; [2]): below the threshold | pKd (SNX27, Q96L92; [2]): 4.59 | pKd (TJP1_2, Q07157; [2]): below the threshold

SGSRPSATVV [HPV73-E6, Q82005]
pKd (ARHGAP21, Q5T5U3; [1]): below the threshold | pKd (ARHGEF11, O15085; [1]): 3.98 | pKd (DLG3_2, Q92796; [1]): 4.11 | pKd (DLG5_1, Q8TDM6; [1]): below the threshold | pKd (GORASP1, Q9BQQ3; [1]): 4.19 | pKd (GRIP2_5, Q9C0E4; [1]): below the threshold | pKd (IL16_1, Q14005; [1]): below the threshold | pKd (IL16_4, Q14005; [1]): below the threshold | pKd (Inadl_2, Q8NI35; [1]): below the threshold | pKd (Inadl_8, Q8NI35; [1]): 3.53 | pKd (LDB3, O75112; [1]): below the threshold | pKd (LNX2_2, Q8N448; [1]): 4.98 | pKd (MAST1, Q9Y2H9; [1]): 3.73 | pKd (MAST2, Q6P0Q8; [1]): 3.88 | pKd (MPP6, Q9NZW5; [1]): 3.57 | pKd (NHERF2_2, Q15599; [1]): below the threshold | pKd (NHERF3_3, Q5T2W1; [1]): below the threshold | pKd (NHERF4_4, Q86UT5; [1]): below the threshold | pKd (PCLO, Q9Y6V0; [1]): below the threshold | pKd (PDZRN3_1, Q9UPQ7; [1]): below the threshold | pKd (PICK1, Q9NRD5; [1]): 3.63 | pKd (PTPN3, P26045; [1]): below the threshold | pKd (RHPN1, Q8TCX5; [1]): below the threshold | pKd (SHANK1, Q9Y566; [1]): below the threshold | pKd (SIPA1L2, Q9P2F8; [1]): below the threshold | pKd (SNX27, Q96L92; [1]): below the threshold | pKd (TJP1_2, Q07157; [1]): below the threshold

VDFPPKESSL [ACVR2A, P27037]
pKd (ARHGAP21, Q5T5U3; [1]): below the threshold | pKd (ARHGEF11, O15085; [1]): 4.17 | pKd (DLG3_2, Q92796; [1]): below the threshold | pKd (DLG5_1, Q8TDM6; [1]): below the threshold | pKd (GORASP1, Q9BQQ3; [1]): below the threshold | pKd (GRIP2_5, Q9C0E4; [1]): below the threshold | pKd (IL16_1, Q14005; [1]): below the threshold | pKd (IL16_4, Q14005; [1]): below the threshold | pKd (Inadl_2, Q8NI35; [1]): below the threshold | pKd (Inadl_8, Q8NI35; [1]): below the threshold | pKd (LDB3, O75112; [1]): below the threshold | pKd (LNX2_2, Q8N448; [1]): below the threshold | pKd (MAST1, Q9Y2H9; [1]): 4.77 | pKd (MAST2, Q6P0Q8; [1]): 5.05 | pKd (MPP6, Q9NZW5; [1]): below the threshold | pKd (NHERF2_2, Q15599; [1]): 3.77 | pKd (NHERF3_3, Q5T2W1; [1]): below the threshold | pKd (NHERF4_4, Q86UT5; [1]): below the threshold | pKd (PCLO, Q9Y6V0; [1]): below the threshold | pKd (PDZRN3_1, Q9UPQ7; [1]): 4.76 | pKd (PICK1, Q9NRD5; [1]): below the threshold | pKd (PTPN3, P26045; [1]): 4.87 | pKd (RHPN1, Q8TCX5; [1]): 3.97 | pKd (SHANK1, Q9Y566; [1]): below the threshold | pKd (SIPA1L2, Q9P2F8; [1]): below the threshold | pKd (SNX27, Q96L92; [1]): 4.38 | pKd (TJP1_2, Q07157; [1]): below the threshold
